From US20250313645A1 (COMPASS THERAPEUTICS, published 2025)

Tests used:
[1] = molecular target: T1, Fc-, mouse IgG2a-, or His-tagged human CD137 (human, UniProt Q07011 24-186); assay: BLI (Octet HTX), tagged CD137 on biosensor, Fab 0-500 nM in solution, global 1:1 fit, apparent KD; upper end of the printed range 50-70 nM
T1 construct: Sources were ACRO Biosystems, Sino Biological and internal; not shown: Fc, mouse IgG2a or His tag
Description: (§1) The anti-CD137 antibodies were further tested for their binding to CD137 from multiple species. Specifically, mAb1, mAb8 and mAb10 were analyzed for binding to human, mouse, cynomolgus and canine CD137. Kinetic experiments were performed on OCTET HTX (ForteBio) in kinetics buffer (1×PBS, pH 7.4, 0.1 mg/ml BSA, and 0.002% Tween 20). Fc-, mouse IgG2a-, or His-tagged CD137 (human, mouse, cyno or canine) were loaded for 5 minutes on pre-hydrated biosensors, AHC, AMC or NTA respectively. The sensors were then dipped into Fabs (0, 5.12, 12.8, 32, 80, 200 and 500 nM) for 5 minutes of association, following by 15 minutes of dissociation. Results were analyzed with ForteBio Data Analysis 9.0 and fit globally to a 1:1 binding model to determine the apparent KD. KD for human and mouse CD137 binding were confirmed by using antigens from different sources (ACRO Biosystems, Sino Biological and internal).

[2] = molecular target: T1, Fc-, mouse IgG2a-, or His-tagged human …; assay: BLI (Octet HTX), tagged CD137 on biosensor, Fab 0-500 nM in solution, global 1:1 fit, apparent KD; lower end of the printed range 50-70 nM
Description: as §1

Kd [1]: ≤ 70 nM
Kd [2]: ≥ 50 nM
B1: mAb1 Fab (Fab, V domains shown)
VH: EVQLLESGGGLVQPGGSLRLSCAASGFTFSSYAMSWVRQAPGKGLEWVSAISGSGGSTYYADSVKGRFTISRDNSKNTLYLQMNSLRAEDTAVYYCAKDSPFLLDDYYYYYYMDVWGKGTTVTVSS
VL: DIQMTQSPSSVSASVGDRVTITCRASQGISSWLAWYQQKPGKAPKLLIYAASSLQSGVPSRFSGSGSGTDFTLTISSLQPEDFATYYCQQGHLFPITFGGGTKVEIK
